Test [1] addresses T1, human CLDN18.2 on the cell surface (human, UniProt P56856-2 1-261). Kind of test: cell-based or functional assay.
Test [2] concerns the target T2, human CD3 complex on T cells (human, UniProt P07766 23-207; P04234 22-171; P09693 23-182; P20963 22-164).
T2 construct: whole, on cells; also called CD3 at the cellular level; Jurkat cells
Kind of test: flow cytometry on Jurkat cells (human CD3 complex), PE anti-human Fc secondary antibody; the EC50 table prints no unit, nM is taken from the axis Concentration of antibody (nM). The text has this:
Jurkat cells were immortalized human T lymphocytes, which expressed human CD3 complex. The cell line was used to detect the binding of the antibody of invention and the cell.
On the technique in general: A flow cytometer gives signals particle by particle.

Test [3] has as its target T1, human CLDN18.2 on the cell surface. Kind of test: flow cytometry (FACS) titration on DAN-G-hCLDN18.2 pancreatic cancer cells.
Test [4] has the same target. Briefly: flow cytometry (FACS) titration on NUGC-4 gastric cancer cells.
The target is the same in test [5]. Kind of test: flow cytometry (FACS) titration on CHO-hCLDN18.2 cells, PE anti-human Fc secondary antibody; the EC50 table prints no unit, nM is taken from the axis Log[Conc.(nM)]. Here is the method: (§1) Specifically, the cells to be tested (CHO-hCLDN18.2 and CHO-hCLDN18.1) obtained in Example 1 were counted and diluted to 1×10⁶ cells/ml, added to the U-shaped bottom 96-well plate at 100 μl/well, and then centrifuged at 500 g for 5 min before the cell culture medium was removed. […] The initial concentration of the antibody was 900 nM, and it was diluted three times serially, a total of 10 concentration points before leaving it on ice for 30 min, and removing the supernatant at 500 g for 5 min, and washing the cells with PBS once before adding goat anti-human Fc PE-labeled secondary antibody (Southern Biotech, J2815-5H87B) at 100 μl/well, and incubating in dark on ice for 30 min, removing the supernatant at 500 g for 5 min, and washing the cells with PBS once. 50 μl 1×PBS was used to resuspend cells and FACS was used for detection. GraphPad Prism software was used to analyze the experimental data and get FIG. 1 and FIG. 2.

The target in test [6] is T3, Human Claudin 18.2 (GenScrip, P50251802) (human, UniProt P56856-2 1-261, limits assumed).
T3 construct: Bought protein; also called human CLDN18.2
Kind of test: SPR (Biacore T200), CLDN18.2 amine-coupled to chip, antibody as analyte, 1:1 model. Here is the method: After coupling, 1 M ethanolamine was injected to seal the remaining activation sites. The binding and dissociation between the chip surface antigen and the antibody in the mobile phase were detected by Biocore (GE Healthcare, T200) according to the manufacturer's instructions to obtain the affinity and kinetic constants. The serially diluted antibody (0-100 nM) flowed through the chip surface in order from low concentration to high concentration, with binding time of 180 s and dissociation time of 600 s. Finally, 10 mM Glycine pH 1.5 (GE Healthcare, BR-1003-54) was used to regenerate the chip. The resulting data were analyzed using the Biocore T200 analysis software and the dynamic analysis was conducted using the 1:1 combination model.
Background: Surface plasmon resonance follows binding to a sensor surface in real time, without labels.

Test [7] has as its target T4, human CLDN18.1 on the cell surface (human, UniProt P56856 1-261).
T4 construct: whole, on cells; also called CHO-hCLDN18.1
Kind of test: flow cytometry (FACS) titration on CHO-hCLDN18.1 cells, PE anti-human Fc secondary antibody. The protocol:
as §1

Where a chain is given by its changes, count along the chain named. A value given as a limit tells only on which side of the number the result lay.

T2 sequence (P07766 23-207, chain 1 of 4): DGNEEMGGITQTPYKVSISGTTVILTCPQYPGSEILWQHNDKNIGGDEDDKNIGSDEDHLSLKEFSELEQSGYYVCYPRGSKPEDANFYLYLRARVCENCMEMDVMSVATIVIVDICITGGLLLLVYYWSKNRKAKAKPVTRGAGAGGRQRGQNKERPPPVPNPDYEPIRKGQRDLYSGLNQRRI
T2 sequence (P04234 22-171, chain 2 of 4): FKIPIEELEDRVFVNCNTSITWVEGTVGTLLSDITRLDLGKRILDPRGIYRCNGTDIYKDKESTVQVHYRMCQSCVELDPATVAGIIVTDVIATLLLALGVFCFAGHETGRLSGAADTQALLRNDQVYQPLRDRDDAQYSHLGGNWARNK
T2 sequence (P09693 23-182, chain 3 of 4): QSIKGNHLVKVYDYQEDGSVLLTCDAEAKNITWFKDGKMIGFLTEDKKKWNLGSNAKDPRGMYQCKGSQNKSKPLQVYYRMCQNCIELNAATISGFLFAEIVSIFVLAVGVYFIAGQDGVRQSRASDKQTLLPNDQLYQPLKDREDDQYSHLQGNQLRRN
T2 sequence (P20963 22-164, chain 4 of 4): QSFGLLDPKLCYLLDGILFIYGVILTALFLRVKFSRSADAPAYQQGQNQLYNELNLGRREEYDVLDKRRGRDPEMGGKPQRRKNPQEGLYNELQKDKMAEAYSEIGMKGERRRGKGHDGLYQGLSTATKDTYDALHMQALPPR

B1: bispecific antibody 030 (CLDN18.2 x CD3) (bispecific antibody, human IgG1, kappa, lambda, L234A L235A)
heavy 1: not shown
light 1: not shown
heavy 2: not shown
light 2: QAVVTQEPSLTVSPGGTVTLTCRSSTGAVTTSNYANWVQQKPGQAPRGLIGGTNKRAPGVPARFSGSLLGDKAALTLLGAQPEDEAEYYCALWYSNLWVFGQGTKLTVLGQPKAAPSVTLFPPSSEELQANKATLVCLISDFYPGAVTVAWKADSSPVKAGVETTTPSKQSNNKYAASSYLSLTPEQWKSHRSYSCQVTHEGSTVEKTVAPTECS
For the molecule B1, in test [1], the “EC50 of PBMC-mediated killing of gastric cancer cell NUGC-4” value was less than 0.001 nM and the “EC50 of PBMC-mediated killing of pancreatic cancer cell DAN-G-hCLDN18.2” value is less than 0.1 pM.

B2: bispecific antibody 033 (CLDN18.2 x CD3) (bispecific antibody, human IgG1, kappa, lambda, L234A L235A)
heavy 1: not shown
light 1: not shown
heavy 2: not shown
light 2: B1 light 2
Regarding B2, in test [1], the “killing activity on NUGC-4 and DAN-G-hCLDN18.2 relative to 030 and 032” value was ~1000 times lower than 030 and 032.

B3: bispecific antibody 032 (CLDN18.2 x CD3) (bispecific antibody, human IgG1, kappa, lambda, L234A L235A)
heavy 1: not shown
light 1: not shown
heavy 2: not shown
light 2: B1 light 2
As for B3, in test [1], the “EC50 of PBMC-mediated killing of gastric cancer cell NUGC-4” value is less than 0.001 nM and the “EC50 of PBMC-mediated killing of pancreatic cancer cell DAN-G-hCLDN18.2” value is less than 0.1 pM.

B4: anti-CD3 monoclonal antibody HzSP34.87 (antibody, human IgG1, lambda, L234A L235A, V domains shown)
VH: EVQLVESGGGLVQPGGSLKLSCAASGFTFNTYAMNWVRQASGKGLEWVGRIRSKYNNYATYYADSVKDRFTISRDDSKSTLYLQMNSLKTEDTAVYYCARHYNFGQSYVSWFAYWGQGTTVTVSS
VL: QAVVTQEPSLTVSPGGTVTLTCRSSTGAVTTSNYANWVQQKPGQAPRGLIGGTNKRAPGVPARFSGSLLGDKAALTLLGAQPEDEAEYYCALWYSNLWVFGQGTKLTVLG
The EC50 is the concentration at which the effect is half-maximal. Low values mean greater potency, high ones weaker potency. In test [2], B4 came in with a concentration giving a half-maximal response (EC50) of 3.42 nM.

B5: anti-CD3 monoclonal antibody HzSP34.97 (antibody, human IgG1, lambda, L234A L235A, V domains shown)
VH: B4 VH with Y55A, N56G, N57G, Y102G
VL: B4 VL
With B5, the response in test [2] was half-maximal at 3 nM (EC50).

B6: control antibody zolbetuximab (antibody, human IgG1, kappa, V domains shown)
VH: QVQLQQPGAELVRPGASVKLSCKASGYTFTSYWINWVKQRPGQGLEWIGNIYPSDSYTNYNQKFKDKATLTVDKSSSTAYMQLSSPTSEDSAVYYCTRSWRGNSFDYWGQGTTLTVSS
VL: DIVMTQSPSSLTVTAGEKVTMSCKSSQSLLNSGNQKNYLTWYQQKPGQPPKLLIYWASTRESGVPDRFTGSGSGTDFTLTISSVQAEDLAVYYCQNDYSYPFTFGSGTKLEIKR
notes: also called Zmab; positive control antibody Zmab
By EC50 (read off the curve) is commonly meant the concentration at which the effect is half-maximal. Low readings indicate a more potent agent, high ones a less potent agent. For the molecule B6, the “EC50 (read off the curve)” value is approximately 2 nM in test [3] and approximately 3 nM in test [4]. Besides, the midpoint of the response in test [5], the EC50, lay at 3.31 nM.

B7: anti-CLDN18.2 monoclonal antibody HB37A6 (antibody, human IgG1, kappa, V domains shown)
VH: EVQLLDSGGGLVQPGGSLRLSCAASGFTFSSYVMSWVRQAPGKGLNWVSTISHSGGSTYYADSVKGRFTISRDNSKNTLYLQMNSLRAEDTAVYYCAIDAPYYDILTGYRYWGQGTLVTVSS
VL: not shown
notes: also called whole human antibody HB37A6
By Kd is commonly meant the free concentration of one partner at which half of the binding sites on the other are occupied at equilibrium, for simple one-to-one binding. One may read the koff as the rate constant with which the complex falls apart. As a reminder, the kon is the second-order rate constant of association. For the molecule B7, the half-maximal effective concentration (EC50 (read off the curve)) in test [4] is approximately 1 nM. Further, in test [6], the Kd was found to be 0.72 nM, the koff is 0.000306 s⁻¹ and the kon was determined as 425000 M⁻¹ s⁻¹. Besides, the binding result in test [7] is reported as “no binding”. The molecule further yielded an EC50 in test [5] of 5.51 nM.

For the origin of these results see US20230357389A1 (Innovent, published 2023).
